Substitutions are numbered along the chain they refer to.
T1: recombinant human KAAG1 (Kidney associated antigen 1) (human, UniProt Q9UBP8 1-84)
T1 construct: also called KAAG1 protein
T1 sequence: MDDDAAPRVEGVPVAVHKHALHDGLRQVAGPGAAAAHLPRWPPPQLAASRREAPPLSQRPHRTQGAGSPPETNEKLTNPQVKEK

B1: chimeric 3A4 anti-KAAG1 antibody (mouse variable regions, human IgG1/kappa constant regions) (antibody, V domains shown)
VH: QIQLVQSGPEMVKPGASVKMSCKASGYTFTDDYMSWVKQSHGKSLEWIGDINPYNGDTNYNQKFKGKAILTVDKSSSTAYMQLNSLTSEDSAVYYCARDPGAMDYWGQGTSVTVSS
VL: DVVMTQTPLSLAVSLGDQASISCRSSQSLLHSNGNTYLEWYLQKPGQSPKLLIHTVSNRFSGVPDRFSGSGSGTDFTLKISRVEAEDLGVYYCFQGSHVPLTFGAGTRLELKR
notes: It is treated here as the same molecule; also called LcHc; murine 3A4 (LcHc)
B2: humanized 3A4 antibody Lh1Hh2 (antibody, human IgG1, kappa, V domains shown)
VH: QIQLVQSGAEVKKPGASVKVSCKASGYTFTDDYMSWVRQAPGQGLEWMGDINPYNGDTNYNQKFKGRVTITADKSTSTAYMELSSLRSEDTAVYYCARDPGAMDYWGQGTLVTVSS
VL: DIVMTQTPLSLPVTPGEPASISCRSSQSLLHSNGNTYLEWYLQKPGQSPQLLIYTVSNRFSGVPDRFSGSGSGTDFTLKISRVEAEDVGVYYCFQGSHVPLTFGQGTKLEIKR
notes: Human IgG1/kappa
B3: 3A9 anti-KAAG1 antibody (antibody, V domains shown)
VH: QVQVQQPGAELVRPGASVTLSCKASGYIFTDYEVHWVRQRPVHGLEWIGVIDPETGDTAYNQKFKGKATLTADKSSSTAYMELSSLTAEDSAVYYCIGYADYWGQGTTLTVSS
VL: DIVMTQSPSSLAMSLGQKVTMSCKSSQSLLNSNNQLNYLAWYQQKPGQSPKLLVYFASTRKSGVPDRFIGSGSGTDFTLTITSVQAEDLADYFCQQHFNTPLTFGAGTKLELK
notes: Variable regions only; Isolated from a Fab library
B4: 3D1 anti-KAAG1 antibody (antibody, V domains shown)
VH: EVQLQESGPDLVKPSQSLSLTCTVTGFSITSGYGWHWIRQFPGDKLEWMGYISFNGDYNYNPSLKSRISITRDTSKNQFFLQLSSVTTEDTATYYCASSYDGLFAYWGQGTLVTVSA
VL: DIKMTQSPSSMYASLGERVTITCKASQDIHTYLNWFQQKPGKSPETLIYRANRLVDGVPSRFSGSGSGQDYSLTISSLEYEDMGIYYCLQYDEFPLTFGAGTKLELK
notes: as for B3
B5: 3C4 anti-KAAG1 antibody (antibody, V domains shown)
VH: B4 VH with D44N, S53N, F54Y, N55D, D57H, Y58N, N59D, R72Q, S84N
VL: DIVMSQSPSSMYASLGERVTITCKASQDIHNFLNWFQQKPGKSPKTLIFRANRLVDGVPSRFSGSGSGQDYSLTISSLEFEDLGIYSCLQYDEIPLTFGAGTKLELR
B6: 3C2 anti-KAAG1 antibody (antibody, V domains shown)
VH: B4 VH with E1D, D44N, Y58S, S84N, T88S, T111P
VL: B4 VL with K3Q, I21L, T31N, E45K, Y49H, D56A, M83L, E93A
notes: as for B3
B7: 3F6 anti-KAAG1 antibody (antibody, V domains shown)
VH: EVQLQQSGPELVKPGASVKMSCKASGYIFTEYNIHWVKQKPGQGPEWIGNINPYNDVTEYNEKFKGKATLTSDKASSTAYMDLSSLTSEDSAVYYCARWGLRNWGQGTLVTVSA
VL: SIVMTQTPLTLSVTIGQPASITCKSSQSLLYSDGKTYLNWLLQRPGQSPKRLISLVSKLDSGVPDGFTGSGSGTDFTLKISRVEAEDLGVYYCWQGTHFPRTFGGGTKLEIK
notes: as for B3
B8: 3E8 anti-KAAG1 antibody (antibody, V domains shown)
VH: B7 VH with G8V, A24T, I28T, I34M, D56N, A75S, M81L
VL: not shown
notes: as for B3
B9: 3D3 anti-KAAG1 antibody (antibody, V domains shown)
VH: EVQLQQSVAELVRPGASVTLSCKASGYIFTDYEIHWVKQTPVHGLEWIGVIDPETGNTAFNQKFKGKATLTADISSSTAYMELSSLTSEDSAVYYCMGYSDYWGQGTTLTVSS
VL: DIVMTQSPSSLAVSIGQKVTMNCKSSQSLLNSNFQKNFLAWYQQKPGQSPKLLIYFASTRESSIPDRFIGSGSGTDFTLTISSVQAEDLADYFCQQHYSTPLTFGAGTKLELK
B10: 3G12 anti-KAAG1 antibody (antibody, V domains shown)
VH: B9 VH with L20V, V42A
VL: DIVMTQSPKFMSTSVGDRVSITCKASQDVGTAVAWYQQKPGQSPELLIYWTSTRHTGVPDRFSGSGSGTDFTLTISSVQAEDLADYFCQQHYSIPLTFGAGTKLELR
notes: as for B3
B11: 3F10 anti-KAAG1 antibody (antibody, V domains shown)
VH: B9 VH with S17P, I28T, I34V, N57A, F60Y, I74K, T78A, S85R, G98S
VL: B3 VL with A12T, L15V, S32T, N33S, R60T, K61E, T82S, F98Y, N99S
notes: as for B3
B12: 3G8 anti-KAAG1 antibody (antibody, V domains shown)
VH: B9 VH with E1Q, Q5K, V8G, I28T, I34V, E54A, N57D, F60Y, I74K, L83V
VL: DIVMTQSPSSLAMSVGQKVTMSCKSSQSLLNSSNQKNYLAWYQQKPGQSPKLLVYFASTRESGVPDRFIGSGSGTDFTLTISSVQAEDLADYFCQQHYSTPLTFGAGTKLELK
notes: as for B3
B13: 3G5 anti-KAAG1 antibody (antibody, V domains shown)
VH: QVQLQQPGAELVRPGASVTLSCKASGYTFTDYEIHWVKQTPVHGLEWIGVLDPGTGRTAYNQKFKDKATLSADKSSSTAYMELSSLTSEDSAVYYCMSYSDYWGPGTTLTVSS
VL: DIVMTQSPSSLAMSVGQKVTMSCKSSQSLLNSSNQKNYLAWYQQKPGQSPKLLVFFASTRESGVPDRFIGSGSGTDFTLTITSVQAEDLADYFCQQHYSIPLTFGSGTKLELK
notes: as for B3
B14: 3B11 anti-KAAG1 antibody (antibody, V domains shown)
VH: B9 VH with I28T, I34M, H43R, E54A, N57D, F60Y, I74K, T78A, Y80F
VL: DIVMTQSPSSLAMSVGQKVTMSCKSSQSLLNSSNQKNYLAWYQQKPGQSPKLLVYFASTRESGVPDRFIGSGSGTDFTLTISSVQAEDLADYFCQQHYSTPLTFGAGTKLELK
notes: as for B3
B15: 3B1 anti-KAAG1 antibody (antibody, V domains shown)
VH: B9 VH with E1Q, S7P, V8G, I28T, N57G, F60Y, A72T, I74K, S84R
VL: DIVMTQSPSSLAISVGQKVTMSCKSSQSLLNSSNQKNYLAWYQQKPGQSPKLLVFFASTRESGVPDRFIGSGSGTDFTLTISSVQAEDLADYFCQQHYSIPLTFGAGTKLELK
notes: as for B3
B16: 3F7 anti-KAAG1 antibody (antibody, V domains shown)
VH: B9 VH with E1Q, V2A, Q3Y, V8G, I28T, N57D, F60Y, G66D, I74K, S75A
VL: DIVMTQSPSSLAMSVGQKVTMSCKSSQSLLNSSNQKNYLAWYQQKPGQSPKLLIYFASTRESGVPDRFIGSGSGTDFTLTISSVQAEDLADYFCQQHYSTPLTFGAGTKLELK
notes: as for B3
B17: 3E12 anti-KAAG1 antibody (antibody, V domains shown)
VH: B9 VH with E1Q, V8E, R13K, T19K, I28T, N57D, F60Y, I74K, S85R, Y99H
VL: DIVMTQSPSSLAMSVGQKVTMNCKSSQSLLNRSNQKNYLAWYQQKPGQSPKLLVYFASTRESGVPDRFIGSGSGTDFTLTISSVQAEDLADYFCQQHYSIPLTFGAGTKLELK
notes: as for B3
B18: 3B8 anti-KAAG1 antibody (antibody, V domains shown)
VH: B9 VH with V8G, I28T, N57D, F60Y, K63N, K65T, I74K, S100A
VL: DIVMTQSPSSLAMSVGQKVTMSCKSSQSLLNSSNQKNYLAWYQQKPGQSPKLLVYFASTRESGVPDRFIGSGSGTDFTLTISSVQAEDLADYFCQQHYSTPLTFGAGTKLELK
notes: as for B3
B19: 3F4 anti-KAAG1 antibody (antibody, V domains shown)
VH: B9 VH with V8G, I28T, N57S, F60Y, I74K, S75A
VL: DIVMTQSPSSLTVTAGEKVTMSCKSSQSLLNTSNQKNYLAWYQQKPGQSPKLLVYFASTRASGVPDRFIGSGSGTDFTLTISSVQAEDLADYFCQQHYSTPLTFGAGTKLELK
notes: as for B3
B20: 3E9 anti-KAAG1 antibody (antibody, V domains shown)
VH: B9 VH with V8G, V18A, I28T, I34M, N57S, F60Y, I74K, S100A
VL: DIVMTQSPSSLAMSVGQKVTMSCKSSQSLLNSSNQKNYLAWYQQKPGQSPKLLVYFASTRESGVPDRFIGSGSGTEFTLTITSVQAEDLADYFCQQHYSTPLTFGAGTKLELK
notes: as for B3
B21: 3C3 anti-KAAG1 antibody (antibody, V domains shown)
VH: B9 VH with L11V, I28T, N57V, F60Y, K63R, K65R, G66D, A72T, I74K, Y95F
VL: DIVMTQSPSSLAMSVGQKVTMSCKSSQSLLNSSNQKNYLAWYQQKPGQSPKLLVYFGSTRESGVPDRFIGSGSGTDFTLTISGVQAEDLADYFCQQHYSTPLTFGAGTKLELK
notes: as for B3
B22: 3A2 anti-KAAG1 antibody (antibody, V domains shown)
VH: EIQLQQSGPELVKPGASVKMSCKTSGYTFTDYNMHWVKQKPGQGLEWIGYINPYNDVTEYNEKFKGRATLTSDKSSSTAYMDLSSLTSDDSAVYFCAWFGLRQWGQGTLVTVST
VL: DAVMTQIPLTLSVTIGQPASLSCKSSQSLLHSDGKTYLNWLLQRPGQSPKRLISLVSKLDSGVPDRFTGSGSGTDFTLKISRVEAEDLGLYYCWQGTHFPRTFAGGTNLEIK
notes: as for B3
B23: 4A2 anti-KAAG1 antibody (antibody, V domains shown)
VH: QVKLQQSGTELVRPGASVTLSCKASGYKFTDYEMHWVKQTPVHGLEWIGGIDPETGGTAYNQKFKGKAILTADKSSTTAYMELRSLTSEDSAVYYCISYAMDYWGQGTSVTVSS
VL: DIVMTQSPSSLAMSVGQKVTMNCKSSQSLLNNSNQKNYLAWYQQKPGQSPKLLLYFASTRESGVPDRFIGSGSGTYFTLTISSVQAEDLADYFCQQHYSTPLTFGAGTKLDLK
notes: as for B3
B24: 3E6 anti-KAAG1 antibody (antibody, V domains shown)
VH: B23 VH with K3Q, T9A, K28T, T30S, G57D, A59V, I69T, T77S, R84S
VL: B4 VL with K3Q, I21L, T31N, E45K, Y49H, D56A, M83L, E93A
notes: as for B3
B25: 3E10 anti-KAAG1 antibody (antibody, V domains shown)
VH: EVQLQQSGPELVKPGASVKISCKASGDTFTDYYMNWVKQSHGKSLEWIGDINPNYGGITYNQKFKGKATLTVDTSSSTAYMELRGLTSEDSAVYYCQAYYRNSDYWGQGTTLTVSS
VL: DIVMTQAAPSVPVTPGESVSISCRSSKSLLHSNGNTYLYWFLQRPGQSPQLLIYRMSNLASGVPDRFSGSGSGTAFTLRISRVEAEDVGVYYCMQHLEYPYTFGGGTKLEIK
notes: as for B3

target: T1, recombinant human KAAG1 (Kidney …); test: SPR (BioRad ProteOn XPR36): antibody captured on an anti-human IgG Fc surface, KAAG1 injected as analyte, 1:1 Langmuir fit
Procedure: (§1) Immediately after the activation, a 13 μg/mL solution of anti-human IgG Fc fragment specific in 10 mM NaOAc pH 4.5 was injected in the analyte direction at a flow rate of 25 μL/min until approximately 8000 resonance units (RUs) were immobilized. Remaining active groups were quenched by a 300 s injection of 1M ethanolamine at 30 μL/min in the analyte direction, and this also ensures mock-activated interspots are created for blank referencing. The screening of the 3A4 variants for binding to KAAG1 occurred in two steps: an indirect capture of 3A4 variants from cell supernatant onto the anti-human IgG Fc fragment specific surface in the ligand direction(vertical) followed by a KAAG1 injection in the analyte direction. Firstly, one buffer injection for 30 s at 100 uL/min in the ligand direction was used to stabilize the baseline. […] Four to five 3A4 variants along with wild-type 3A4 were simultaneously injected in individual ligand channels for 240 s at flow 25 μL/min. […] The first ligand channel was left empty to use as a blank control if required. This 3A4 capture step was immediately followed by two buffer injections in the analyte direction to stabilize the baseline, and then the gel filtration purified KAAG1 was injected. For a typical screen, five KAAG1 concentrations (8, 2.66, 0.89, 0.29, and 0.098 nM) and buffer control were simultaneously injected in individual analyte channels at 50 μL/min for 120 s with a 600s dissociation phase, resulting in a set of binding sensorgrams with a buffer reference for each of the captured 3A4 variants. The anti-human IgG Fc fragment specific—3A4 complexes were regenerated by a 18 s pulse of 0.85% phosphoric acid for 18 s at 100 μL/min to prepare the anti-human IgG Fc fragment specific surface for the next injection cycle. Sensorgrams were aligned and double-referenced using the buffer blank injection and interspots, and the resulting sensorgrams were analyzed using ProteOn Manager software v3.0.

Row | Kd [nM] | koff [s⁻¹] | kon [M⁻¹ s⁻¹] | Binder
1 | 0.016 | 0.000121 | 7.72e+06 | B1
2 | 0.211 | 0.00119 | 5.65e+06 | B2

target: T1, recombinant human KAAG1 (Kidney …); test: not described; list of antibodies generated

Row | binding result | Binder
3 | binds | B3
4 | binds | B4
5 | binds | B5
6 | binds | B6
7 | binds | B7
8 | binds | B8
9 | binds | B9
10 | binds | B10
11 | binds | B11
12 | binds | B12
13 | binds | B13
14 | binds | B14
15 | binds | B15
16 | binds | B16
17 | binds | B17
18 | binds | B18
19 | binds | B19
20 | binds | B20
21 | binds | B21
22 | binds | B22
23 | binds | B23
24 | binds | B24
25 | binds | B25

target: T1, recombinant human KAAG1 (Kidney …); test: SPR (BioRad ProteOn XPR36); fold difference of KD relative to LcHc
Procedure: as §1

Row | Fold diff. | Binder
26 | 13.2 | B2

Reference: patent US20190119366A1 (ADC THERAPEUTICS, published 2019)
